The values below come from patent US20190077864A1 (ONCOMED PHARMACEUTICALS, published 2019).

Assay [1] concerns the target murine TIGIT (mTIGIT) tagged with FLAG and GFP, on cells (mouse) (UniProt P86176). Kind of assay: cell-based or functional assay.
Assay [2] concerns the target murine TIGIT (mTIGIT) on B3Z T-cell hybridoma cells (mouse) (UniProt P86176). Kind of assay: cell-based or functional assay.
For a further assay, the target named is T1, hPVR-rbFc fusion protein (human, UniProt P15151 21-343).
T1 construct: extracellular domain; Expressed in CHO cells, purified on protein A; also called human PVR-rabbit Fc fusion protein; not shown: rabbit Fc region
T1 sequence (looked up): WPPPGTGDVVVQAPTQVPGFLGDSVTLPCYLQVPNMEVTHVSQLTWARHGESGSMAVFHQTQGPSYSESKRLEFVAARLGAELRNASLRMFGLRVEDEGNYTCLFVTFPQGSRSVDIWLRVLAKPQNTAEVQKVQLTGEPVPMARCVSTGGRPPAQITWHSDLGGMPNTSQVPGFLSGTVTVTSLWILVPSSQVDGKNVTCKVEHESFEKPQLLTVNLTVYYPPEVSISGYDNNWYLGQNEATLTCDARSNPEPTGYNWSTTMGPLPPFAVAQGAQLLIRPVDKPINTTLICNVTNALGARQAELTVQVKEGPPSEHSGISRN
The assay can be described thus: flow cytometry of hPVR-rbFc on HEK-293T cells with hTIGIT-CD4TM-GFP, detected with anti-rabbit Fc-PE, no antibody added. The protocol: FIGS. 19A and 19B. FACS analysis of anti-TIGIT antibody blocking binding of human TIGIT to PVR. […] Transfected cells were incubated with soluble human PVR-Fc fusion protein in the presence of antibodies generated to TIGIT (313R19, 313M26, or 313M32) at concentrations of 10, 2, or 0.4 μg/ml or no antibody and analyzed by flow cytometry. Specific binding is indicated by the presence of a diagonal signal within a FACS plot. […] Specific binding is indicated by the presence of a diagonal signal within a FACS plot.
After 16 hours, transfected cells were suspended in ice cold HBSS containing 2% FBS and heparin and incubated on ice with 0.5 μg/ml hPVR-rbFc fusion protein in the presence of anti-TIGIT antibodies 313R19, 313M26, or 313M32 for 60 minutes. Antibody 313R19 is a humanized version of a rabbit anti-TIGIT antibody. 313R19 binds mouse and human TIGIT. The antibodies were tested at concentrations of 10, 2, and 0.4 ug/ml. Cells were incubated without antibody or without hPVR-rbFc as controls. A second incubation with 100 μl PE-conjugated anti-rabbit Fc secondary antibody was performed to detect cells bound by the hPVR-rbFc fusion protein. The cells were analyzed on a FACSCanto instrument (BD Biosciences) and the data was processed using FlowJo software.
(In general: A flow cytometer gives signals particle by particle.)

The target in another assay is T2, human TIGIT (human, UniProt Q495A1 22-141, limits assumed).
T2 construct: also called hTIGIT
T2 sequence: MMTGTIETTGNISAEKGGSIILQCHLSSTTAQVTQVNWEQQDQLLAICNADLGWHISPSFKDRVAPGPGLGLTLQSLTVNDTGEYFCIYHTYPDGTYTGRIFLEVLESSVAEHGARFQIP
Kind of assay: Biacore, preliminary; format not stated. Background: Surface plasmon resonance follows binding to a sensor surface in real time, without labels.

The target of assay [3] is T3, mouse TIGIT ECD-CD4TM-GFP on HEK-293T cells (mouse, UniProt P86176 29-148).
T3 construct: The legend names the construct as mouse TIGIT ECD; also called mouse TIGIT-CD4TM-GFP; mTIGIT-CD4TM-GFP; not shown: transmembrane domain of CD4 (CD4TM); GFP (green fluorescent protein)
T3 sequence: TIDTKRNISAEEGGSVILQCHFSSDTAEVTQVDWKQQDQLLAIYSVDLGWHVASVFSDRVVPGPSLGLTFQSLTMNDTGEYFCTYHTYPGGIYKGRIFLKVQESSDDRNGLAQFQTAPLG
Kind of assay: flow cytometry of rabbit antibody supernatant on HEK-293T cells transiently transfected with mouse TIGIT ECD-CD4TM-GFP; antibody signal against GFP.

Assay [4] concerns the target T3, mouse TIGIT ECD-CD4TM-GFP on HEK-293T …. Kind of assay: flow cytometry, 1 µg/ml antibody on transiently transfected HEK-293T cells, PE-conjugated anti-Fc secondary, signal against TIGIT-GFP. The protocol: The TIGIT variants were evaluated by FACS with anti-hTIGIT antibodies. […] After 16 hours, transfected cells were suspended in ice cold HBSS containing 2% FBS and incubated on ice with 1 μg/ml anti-hTIGIT antibodies 313R12, 313M32, or 313M34 for 30 minutes. 313M34 is an anti-hTIGIT antibody that was generated based upon the amino acid sequences of the 10A7 antibody described in U.S. Publication 2009/0258013. The 10A7 antibody is an anti-mouse TIGIT antibody that binds both mouse TIGIT and human TIGIT. A second incubation with 50 μl PE-conjugated anti-Fc secondary antibody was performed to detect cells bound by the antibodies. The cells were analyzed on a FACSCanto instrument (BD Biosciences) and the data was processed using FlowJo software.

In the case of murine PVR (mPVR) on cells (ligand), in assay [1], the ratio of NK-92 cytotoxicity against 721.221-mPVR cells to that against parental 721.221 cells (calcein release) was under 1. Moreover, the ratio of IL-2 secretion in response to mPVR-expressing tumor cells to that in response to mPVR-negative tumor cells (ELISA) in assay [2] was under 1.

B1: hTIGIT-CD4TM-GFP on HEK-293T cells (receptor)
chain: T2 sequence
notes: Cell surface fusion protein, transiently expressed; also called human TIGIT ECD-CD4TM-GFP; FLAG-hTIGIT-CD4TM-GFP; not shown: transmembrane domain of CD4 (CD4TM); C-terminal GFP protein tag
As to B1, in the assay with hPVR-rbFc fusion protein, the binding result was “binds”.

B2: anti-TIGIT antibody 313R19 (antibody, human IgG1, kappa, V domains shown)
VH: QVQLQESGPGLVKPSETLSLTCTVSGFSLSSSYMSWIRQPPGKGLEWIGIIGSNGNTYYANWAKGRVTISKSSNQVSLKLSSVTAADTAVYYCARGGYRTSGMDPWGQGTLVTVSS
VL: DIQMTQSPSSLSASVGDRVTITCQASQNIYSDLAWYQQKPGKAPKLLIYRASTLASGVPSRFSGSGSGTDFTLTISSLQPEDFATYYCQQEHLVAWIYNVFGQGTKVEIKR
notes: Humanized rabbit antibody, human IgG1
In the case of B2, the affinity with human TIGIT, expressed as Kd, was 2 nM.

B3: anti-TIGIT antibody 313Rb1 (antibody, V domains shown)
VH: QVQLESEGGLFKPTDTLTLTCTVSGSSLSSSYMSWVRQAPGKGLEWIGIIGSNGNTYYANWAKGRFTISKTSTTVELKITSPTTEDTATYFCARGGYRTSGMDPWGPGTLVTVSS
VL: DIVMTQTPASVEVAVGGTVTIKCQASQSISSYLNWYQQKPGQPPKLLIYDALKLASGVPSRFSGSGSGTEYTLTISGVESADAATYYCQQEHSVGNVDNVFGGGTEVVVKR
notes: Rabbit antibody raised against the extracellular domain of mouse TIGIT
Regarding B3, the binding result in assay [3] is “binds”.

B4: anti-TIGIT antibody 313R12 (antibody, mouse IgG2a, kappa, V domains shown)
VH: B3 VH
VL: B3 VL
notes: Chimeric antibody: variable regions of 313Rb1 in a mouse IgG2a format
As to B4, the binding result in assay [4] is “binds”.
